This passage reports ratio to parent results from PMC8558838 (The Journal of Experimental Medicine, 2021).

B1: full-length mouse BTLA-EGFP, on cells [mouse] / full-length WT mouse HVEM-mCherry, on cells [mouse] (parent complex)
chain 1: EKATKRNDEECPVQLTITRNSKQSARTGELFKIQCPVKYCVHRPNVTWCKHNGTICVPLEVSPQLYTSWEENQSVPVFVLHFKPIHLSDNGSYSCSTNFNSQVINSHSVTIHVRERTQNSSEHPLITVSDIPDATNASGPSTMEERPGRTWLLYTLLPLGALLLLLACVCLLCFLKRIQGKEKKPSDLAGRDTNLVDIPASSRTNHQALPSGTGIYDNDPWSSMQDESELTISLQSERNNQGIVYASLNHCVIGRNPRQENNMQEAPTEYASICVRS
chain 2: QPSCRQEEFLVGDECCPMCNPGYHVKQVCSEHTGTVCAPCPPQTYTAHANGLSKCLPCGVCDPDMGLLTWQECSSWKDTVCRCIPGYFCENQDGSHCSTCLQHTTCPPGQRVEKRGTHDQDTVCADCLTGTFSLGGTQEECLPWTNCSAFQQEVRRGTNSTDTTCSSQVVYYVVSILLPLVIVGAGIAGFLICTRRHLHTSSVAKELEPFQEQQENTIRFPVTEVGFAETEEETASN
B2: mouse CD160 (30I-154H) with C-terminal …, biotinylated [modified: biotin; biotin] [mouse] / full-length WT mouse HVEM-mCherry, on cells [mouse] (parent complex)
chain 1: IHVTSSASQKGGRLDLTCTLWHKKDEAEGLILFWCKDNPWNCSPETNLEQLRVKRDPETDGITEKSSQLVFTIEQATPSDSGTYQCCARSQKPEIYIHGHFLSVLVTGNHTEIRQRQRSHPDFSH
chain 2: B1 chain 2
B3: hCD160-6×His tag protein [human] / WT hHVEM (L39-V202) fused with a PD-L1 transmembrane domain and EGFP, on cells [human] (parent complex)
chain 1: GCINITSSASQEGTRLNLICTVWHKKEEAEGFVVFLCKDRSGDCSPETSLKQLRLKRDPGIDGVGEISSQLMFTISQVTPLHSGTYQCCARSQKSGIRLQGHFFSILFTETGNYTVTGLKQRQHLEFSHNEGTLS
chain 2: LPSCKEDEYPVGSECCPKCSPGYRVKEACGELTGTVCEPCPPGTYIAHLNGLSKCLQCQMCDPAMGLRASRNCSRTENAVCGCSPGHFCIVQDGDHCAACRAYATSSPGQRVQKGGTESQDTLCQNCPPGTFSPNGTLEECQHQTKCSWLVTKAGAGTSSSHWV
B4: full-length mouse LIGHT, on cells (mLIGHT-IRES-EGFP) [mouse] / full-length WT mouse HVEM-mCherry, on cells [mouse] (parent complex)
chain 1: MESVVQPSVFVVDGQTDIPFRRLEQNHRRRRCGTVQVSLALVLLLGAGLATQGWFLLRLHQRLGDIVAHLPDGGKGSWEKLIQDQRSHQANPAAHLTGANASLIGIGGPLLWETRLGLAFLRGLTYHDGALVTMEPGYYYVYSKVQLSGVGCPQGLANGLPITHGLYKRTSRYPKELELLVSRRSPCGRANSSRVWWDSSFLGGVVHLEAGEEVVVRVPGNRLVRPRDGTRSYFGAFMV
chain 2: B1 chain 2
B5: human LIGHT extracellular domain (L83-V240) [human] / WT hHVEM (L39-V202) fused with a PD-L1 transmembrane domain and EGFP, on cells [human] (parent complex)
chain 1: LIQERRSHEVNPAAHLTGANSSLTGSGGPLLWETQLGLAFLRGLSYHDGALVVTKAGYYYIYSKVQLGGVGCPLGLASTITHGLYKRTPRYPEELELLVSQQSPCGRATSSSRVWWDSSFLGGVVHLEAGEKVVVRVLDERLVRLRDGTRSYFGAFMV
chain 2: B3 chain 2

The first test covers variants of B1. The test can be described thus: flow cytometry, cell–cell method.
In the case of chain 2 G51D, the ratio to parent was 1. On to chain 2 P17A, for which the ratio to parent amounted to 0.4. With chain 2 L52A, the ratio to parent is 1. chain 2 L52R: the ratio to parent was found to be 0.9. Still for that read-out and setting: next, chain 2 L52D: 0.8; chain 2 V36A: 1. On the same count and under the same terms, next, chain 2 V36D: 0.8; chain 2 A49D: 1.3. As for chain 2 S98D, the ratio to parent was determined as 1. On the same count and under the same terms, next, chain 2 S98A: 1; chain 2 R5D: 1.2.

For chain 2 R5A, the ratio to parent was found to be 0.7. As for chain 2 H48R, the ratio to parent turned out to be 1.1.

With chain 2 H48D, the ratio to parent turned out to be 1.1.

For chain 2 L56A, the ratio to parent came to 1. Turning to chain 2 L56D, the ratio to parent was 1.1.

On to chain 2 A38W, for which the ratio to parent came to 1.2.

On to chain 2 A38D, for which the ratio to parent is 1.2. chain 2 N50A: the ratio to parent was 1.1. Consider chain 2 N50D, for which the ratio to parent was 0.9. For the variant chain 2 T99D, the ratio to parent turned out to be 0.9. The same measure, in the same setting: next, chain 2 T99A: 1; chain 2 H96D: 0.9; chain 2 K77A: 1.3. Still for that read-out and setting: under chain 2 K77D stands 1.2. On the same count and under the same terms, under chain 2 M18D stands 1. chain 2 M18A: the ratio to parent was 1.2. With chain 2 T35A, the ratio to parent is 0.5. On the same count and under the same terms, under chain 2 T35D stands 0.1; under chain 2 E8R, 0.7; under chain 2 E8A, 1. Same read-out and setting: next, chain 2 S30A: 1; chain 2 S30H: 0.9. chain 2 S30D: the ratio to parent was found to be 0.8. On the same count and under the same terms, next, chain 2 K26D: 1. chain 2 K26A: the ratio to parent turned out to be 0.9. With chain 2 G34A, the ratio to parent was 1.

In the case of chain 2 G34R, the ratio to parent was determined as 0.1. Turning to chain 2 G34D, the ratio to parent was determined as 0.3.

The next test covers variants of B1. The test can be described thus: flow cytometry, cell–cell method; read off a plot.
With chain 2 H48A, chain 2 L52A, the ratio to parent is roughly 0.88.

For the variant chain 2 G34D, chain 2 V36D, the ratio to parent was roughly 0.06. Turning to chain 2 G34D, chain 2 V36A, the ratio to parent was roughly 0.07.

For the variant chain 2 G34D, chain 2 V36R, the ratio to parent was roughly 0.05.

Consider chain 2 G34A, chain 2 V36D, for which the ratio to parent is roughly 0.06. With chain 2 G34R, chain 2 V36A, the ratio to parent was roughly 0.06. Regarding chain 2 H48D, chain 2 L52R, the ratio to parent is roughly 1.4.

Turning to chain 2 H48D, chain 2 L52A, the ratio to parent was roughly 1.

Regarding chain 2 H48D, chain 2 L52D, the ratio to parent was roughly 1.1. On to chain 2 H48R, chain 2 L52A, for which the ratio to parent is roughly 1.2.

In a further test the parent is B2. Description: flow cytometry, cell–protein method. On the technique in general: In flow cytometry, cells or beads pass a laser one at a time.
As for chain 2 E8A, the ratio to parent amounted to 0.1. Turning to chain 2 E8R, the ratio to parent came out at 0.1.

Take chain 2 S30A: the ratio to parent came to 0.9. The same measure, in the same setting: next, chain 2 S30D: 0.8; chain 2 S30H: 0.6. Turning to chain 2 M18A, the ratio to parent was 0.6. For the variant chain 2 M18D, the ratio to parent came to 0.1. In the case of chain 2 R5A, the ratio to parent came to 0.2.

As to chain 2 R5D, the ratio to parent came out at 0.1. With chain 2 K77D, the ratio to parent was 0.6. Still for that read-out and setting: next, chain 2 K77A: 1.1. The same measure, in the same setting: under chain 2 T99A stands 1.1. On to chain 2 T99D, for which the ratio to parent is 1.3. For chain 2 L52A, the ratio to parent amounted to 0.9. Same read-out and setting: under chain 2 L52R stands 0.8; under chain 2 L52D, 0.9. Same read-out and setting: next, chain 2 K26A: 0.7; chain 2 K26D: 0.6; chain 2 S98D: 1.1.

As for chain 2 S98A, the ratio to parent was 1.1. Still for that read-out and setting: under chain 2 H96D stands 1. chain 2 A49D: the ratio to parent was 0.7. With chain 2 G34R, the ratio to parent was 0.1.

On to chain 2 G34D, for which the ratio to parent turned out to be 0.1. Same read-out and setting: next, chain 2 G34A: 0.1. Take chain 2 A38D: the ratio to parent worked out at 0.1. chain 2 A38W: the ratio to parent came to 1.1. On the same count and under the same terms, next, chain 2 N50D: 0.1; chain 2 N50A: 0.1. Turning to chain 2 T35D, the ratio to parent amounted to 0.1. For the variant chain 2 T35A, the ratio to parent was found to be 0.1. Turning to chain 2 H48R, the ratio to parent was found to be 1. With chain 2 H48D, the ratio to parent turned out to be 1.1.

As for chain 2 L56D, the ratio to parent was 0.9. As for chain 2 L56A, the ratio to parent was found to be 1. On to chain 2 G51D, for which the ratio to parent amounted to 0.3.

As for chain 2 V36A, the ratio to parent was determined as 1. Regarding chain 2 V36D, the ratio to parent was determined as 0.1. On to chain 2 P17A, for which the ratio to parent stood at 0.1.

The next test covers variants of B2. The test can be described thus: flow cytometry, cell–protein method; read off a plot.
For chain 2 G34R, chain 2 V36A, the ratio to parent was roughly 0.01. As for chain 2 H48R, chain 2 L52A, the ratio to parent was roughly 1.

Turning to chain 2 G34D, chain 2 V36R, the ratio to parent is roughly 0.01. Regarding chain 2 G34D, chain 2 V36D, the ratio to parent is roughly 0.01.

Take chain 2 G34D, chain 2 V36A: the ratio to parent was roughly 0.01.

For chain 2 G34A, chain 2 V36D, the ratio to parent is roughly 0.01. The same measure, in the same setting: under chain 2 H48A, chain 2 L52A stands roughly 1.4. Consider chain 2 H48D, chain 2 L52R, for which the ratio to parent was roughly 0.66. For the variant chain 2 H48D, chain 2 L52D, the ratio to parent is roughly 0.76.

In another test the parent is B3. Description: flow cytometry on cells stained with soluble protein.
Consider chain 2 L56A, for which the ratio to parent amounted to 1.1.

In the case of chain 2 N50A, the ratio to parent was 0.8. For chain 2 L52A, the ratio to parent worked out at 1.1. As for chain 2 G51A, the ratio to parent was found to be 0.9. Still for that read-out and setting: next, chain 2 L49A: 1.3; chain 2 E77A: 1.1.

In a further test the parent is B4. The test can be described thus: flow cytometry, cell–cell method; read off a plot.
Take chain 2 H48A, chain 2 L52A: the ratio to parent is roughly 0.28. With chain 2 G34R, chain 2 V36A, the ratio to parent is roughly 1.2.

For chain 2 G34A, chain 2 V36D, the ratio to parent was roughly 1.1.

With chain 2 G34D, chain 2 V36A, the ratio to parent is roughly 1.1. Consider chain 2 G34D, chain 2 V36R, for which the ratio to parent was roughly 1.3.

As to chain 2 G34D, chain 2 V36D, the ratio to parent was roughly 0.87.

chain 2 H48R, chain 2 L52A: the ratio to parent is roughly 0.3.

For the variant chain 2 H48D, chain 2 L52R, the ratio to parent is roughly 0.37. Consider chain 2 H48D, chain 2 L52D, for which the ratio to parent is roughly 0.25. Take chain 2 H48D, chain 2 L52A: the ratio to parent was roughly 0.24.

The next test covers variants of B4. The test can be described thus: flow cytometry, cell–cell method.
For the variant chain 2 H96D, the ratio to parent turned out to be 0.7.

Regarding chain 2 R5A, the ratio to parent was 0.5.

With chain 2 G34R, the ratio to parent was 0.6.

Regarding chain 2 L52D, the ratio to parent turned out to be 0.4. In the case of chain 2 L52R, the ratio to parent is 0.4. Turning to chain 2 S98A, the ratio to parent was 0.9. With chain 2 S30H, the ratio to parent amounted to 1.1. As to chain 2 S30D, the ratio to parent came to 0.8. Regarding chain 2 K26A, the ratio to parent came out at 1. With chain 2 N50D, the ratio to parent came out at 0.5. The same measure, in the same setting: next, chain 2 P17A: 0.8; chain 2 A49D: 1.2; chain 2 T35A: 0.7. For chain 2 G51D, the ratio to parent was 0.4. Turning to chain 2 L56D, the ratio to parent worked out at 0.6.

Take chain 2 H48R: the ratio to parent was determined as 1. On to chain 2 H48D, for which the ratio to parent stood at 0.8.

In a further test the parent is B5. The test can be described thus: flow cytometry on cells stained with soluble protein.
For the variant chain 2 G51A, the ratio to parent is 1.2.

Consider chain 2 L56A, for which the ratio to parent is 1.8. Same read-out and setting: next, chain 2 L49A: 1.2; chain 2 N50A: 0.7; chain 2 L52A: 0.9. In the case of chain 2 E77A, the ratio to parent turned out to be 1.
